The supplement of paper PMC9732359
± gives the uncertainty stated by the source.

Experiment: protein stability index of a GFP-peptide fusion (yeast GPS) (PSI 1-4); higher = more stable; sorted into four equal gates, so the index is relative within each strain
Summary of the method: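 The protein stability index combines read frequencies across sorting gates, each weighted by its gate number and then summed. To obtain those frequencies, a pooled yeast library of GFP fusions to tiled 17-residue yeast protein peptides, on a plasmid also expressing Cherry, was grown to mid-log phase in leucine-free medium. The cells were sorted into four equal gates by GFP/Cherry ratio before plasmid amplification by PCR and Illumina sequencing.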

Sequence | protein stability index (doa10∆) | protein stability index (pdr5∆) | protein stability index (san1∆) | protein stability index (ubr1∆)
PYAQKPLQGIFHNAVFN [QCR8] | 2.75 ± 0.057 | 2.52 ± 0.046 | 2.35 ± 0.045 | 2.57 ± 0.038
RPNGRKDHDLKIPLPEV [POP1] | 3.06 ± 0.055 | 3.18 ± 0.058 | 2.99 ± 0.073 | 3.15 ± 0.065
LSESLTKFFDDAKSTPL [RPN9] | 3.01 ± 0.07 | 3.26 ± 0.069 | 3.18 ± 0.055 | 3.12 ± 0.068
SPVRSDSADVPAFSNSN [YMR153W/NUP53] | 3.06 ± 0.096 | 3.07 ± 0.096 | 3.21 ± 0.12 | 2.93 ± 0.057
TKKLIQKTVFDELCKLV [SRP54] | 1.1 ± 0.11 | 1.51 ± 0.096 | 1.25 ± 0.18 | 1.11 ± 0.095
TMANILYYPQKPLGTTR [RPB2] | 1.77 ± 0.057 | 2.47 ± 0.095 | 2.27 ± 0.074 | 1.45 ± 0.04
GTLDINPDDDYGFKQEI [FAS1] | 3.12 ± 0.26 | 3.21 ± 0.15 | 2.79 ± 0.099 | 3.04 ± 0.086
LNSYHIKNGRIYFTVPN [RGR1] | 2.57 ± 0.054 | 2.21 ± 0.035 | 2.19 ± 0.056 | 2.33 ± 0.037
ISGNPPLLYNSLCTVWK [SRB5] | 2.56 ± 0.051 | 2.41 ± 0.045 | 2.34 ± 0.048 | 2.38 ± 0.055
MEQCKQRYQDLSQQQKD [YIL149C/MLP2] | 3.33 ± 0.086 | 3.3 ± 0.074 | 2.95 ± 0.067 | 2.95 ± 0.048
KDVKARIAAGDGDDDDE [QCR9] | 1.83 ± 0.13 | 2.29 ± 0.19 | 2.12 ± 0.074 | 2.24 ± 0.12
ECGTGTTIHTFNRKENP [RPN14] | 2.11 ± 0.18 | 2.5 ± 0.1 | 2.21 ± 0.12 | 2.05 ± 0.13
GMNLLSNLSQNVVPYHR [SWI1] | 1.88 ± 0.079 | 2.88 ± 0.1 | 2.46 ± 0.098 | 2.43 ± 0.065
ISFAIYSALNSTYLPKL [RRP42] | 2.1 ± 0.054 | 2.3 ± 0.048 | 2.05 ± 0.058 | 2.34 ± 0.039
ETEEIDPELLRSYIFGG [RPL5] | 3.22 ± 0.073 | 3.44 ± 0.082 | 3.3 ± 0.046 | 3.23 ± 0.075
IAKTFTVDVSSPTENGV [RPL22A] | 3.04 ± 0.11 | 3 ± 0.1 | 2.9 ± 0.094 | 2.99 ± 0.077
ENLVVADLESFANNHFL [COR1] | 1.7 ± 0.12 | 2.24 ± 0.18 | 1.97 ± 0.14 | 1.89 ± 0.12
INSDNQNIILRSTMMKF [RPN3] | 2.82 ± 0.092 | 2.81 ± 0.086 | 2.77 ± 0.11 | 2.9 ± 0.059
RTIANQDHFHRLNYLYQ [RPR2] | 2.64 ± 0.062 | 2.88 ± 0.043 | 2.73 ± 0.034 | 2.58 ± 0.026
STKTGTPSDLSESGSKL [POP1] | 3.4 ± 0.1 | 3.35 ± 0.088 | 3.24 ± 0.055 | 3.35 ± 0.048
RQFLKANKTNLIESLNT [YML103C/NUP188] | 2.76 ± 0.053 | 2.97 ± 0.062 | 2.87 ± 0.047 | 2.99 ± 0.039
EKPDNSNHNNLNLNNSE [SNF2] | 3.02 ± 0.043 | 3.19 ± 0.051 | 3.15 ± 0.036 | 3.17 ± 0.034
EESINEFKSIEIEMKNK [SMC4] | 3.32 ± 0.21 | 3.56 ± 0.17 | 3.31 ± 0.25 | 2.86 ± 0.097
SGKLRDYQVQGLNWLIS [ISW2] | 2.58 ± 0.07 | 2.71 ± 0.053 | 2.33 ± 0.065 | 2.85 ± 0.039
TTNNNNTNNNNTNNNNN [SWI1] | 3.39 ± 0.087 | 3.5 ± 0.082 | 3.43 ± 0.06 | 3.42 ± 0.079
IFLHSLPVKEFQIIDTL [RPS2] | 2.49 ± 0.12 | 2.54 ± 0.089 | 2.44 ± 0.073 | 2.49 ± 0.061

Sequence | protein stability index (doa10∆) | protein stability index (pdr5∆) | protein stability index (san1∆) | protein stability index (ubr1∆)
DEINTAQDKWHLLPAFL [RET1] | 3.51 ± 0.16 | 3.31 ± 0.13 | 3.29 ± 0.07 | –
PNIHQNLLPKKSAKTAK [HTA2] | 2.88 ± 0.19 | 3.09 ± 0.29 | – | 3 ± 0.14
QKNMNDLLRSQLTSLEK [YIL149C/MLP2] | 2.89 ± 0.073 | 2.17 ± 0.056 | 1.96 ± 0.075 | 2.35 ± 0.05
WGEQKKAMSSRAGVSQV [RPB2] | 3.27 ± 0.12 | 3.17 ± 0.099 | 3.25 ± 0.071 | 3.32 ± 0.05
MVGLVDPDKLKPNDLVG [RPT5] | 2.87 ± 0.097 | 2.94 ± 0.14 | 2.94 ± 0.062 | 2.75 ± 0.069
VAFVCSPISDSRDELIR [RPN10] | 2.42 ± 0.093 | 2.56 ± 0.11 | 1.67 ± 0.12 | 2.34 ± 0.099
RQPSLHKMSMMAHRVKV [RPO21] | 2.2 ± 0.085 | 2.37 ± 0.073 | 2.81 ± 0.09 | 1.68 ± 0.082
EHEEKEKERETNKKGIK [RPN2] | 3.32 ± 0.24 | 3.36 ± 0.1 | 3.33 ± 0.16 | 3.4 ± 0.25
KDAEDETSSDGSKSDGS [RPN1] | 3.38 ± 0.051 | 3.41 ± 0.054 | 3.64 ± 0.047 | 3.29 ± 0.035
FDPVYTTVITVFLEFSL [YML103C/NUP188] | 1.45 ± 0.043 | 1.69 ± 0.043 | 1.8 ± 0.072 | 1.62 ± 0.023
LESYKTQAKKLYHHTTK [SRP72] | 2.29 ± 0.068 | 2.73 ± 0.096 | 2.02 ± 0.13 | 2.66 ± 0.06
ECSKDMKEDGLSFVDIV [SIR4] | 2.75 ± 0.17 | 3.39 ± 0.1 | 3.1 ± 0.088 | 3.03 ± 0.065
YQKKQYKDSLALINDLL [RPN6] | 2.4 ± 0.26 | 2.68 ± 0.19 | 1.82 ± 0.21 | 2.86 ± 0.13
ETHSKKRKKEANEEPNT [ITC1] | 2.69 ± 0.096 | 2.6 ± 0.072 | 3.13 ± 0.058 | 2.17 ± 0.058
NTSFSFTKPPANETDKR [YOR098C/NUP1] | 3.08 ± 0.075 | 3.11 ± 0.049 | 3.07 ± 0.046 | 3.15 ± 0.045
TAKETKMLMNLHKEQWQ [RPN11] | 3.28 ± 0.097 | 3.36 ± 0.082 | 3.5 ± 0.036 | 3.42 ± 0.068
SYNWGAKAKRRHTTGTG [RPL37A] | 3.37 ± 0.097 | 3.15 ± 0.055 | 3.13 ± 0.078 | 3.34 ± 0.043
PIAQPATDVEARAVQDN [RPL13A] | 3.02 ± 0.15 | 3.17 ± 0.11 | 3.1 ± 0.14 | 1.69 ± 0.2
RGGFGGRNRGRPNRRGP [RPS2] | 3.37 ± 0.095 | 3.28 ± 0.14 | 3.44 ± 0.077 | 3.4 ± 0.13
QHIKVFKLDKDTSNWEL [YGL100W/SEH1] | 3.43 ± 0.15 | 3.15 ± 0.12 | 3.2 ± 0.16 | 3.62 ± 0.29
YQSLKQIVQVLKQPPFQ [SSN8] | 1.43 ± 0.082 | 2.22 ± 0.11 | – | 1.46 ± 0.097
LLAKRLSERKAEKAEIR [RPS6A] | 3.35 ± 0.092 | 3.54 ± 0.11 | 3.18 ± 0.086 | 3.33 ± 0.084
LLFINSSKLVDVYTLPS [YML103C/NUP188] | 1.97 ± 0.043 | 2 ± 0.05 | 1.98 ± 0.055 | 2.01 ± 0.054
MAQRVTFRRRNPYNTRS [RPL34A] | 1.55 ± 0.043 | 1.82 ± 0.047 | 1.54 ± 0.072 | 1.77 ± 0.043
TVQENELLKSSLQKAGS [AAR2] | 3.17 ± 0.11 | 3.21 ± 0.088 | 3.01 ± 0.073 | 3.13 ± 0.084
TAFALGIACAGKGLQSA [RPN2] | 1.25 ± 0.086 | 1.33 ± 0.11 | 1.3 ± 0.17 | 1.19 ± 0.076
